Consider three molecules from US10858688B2, “Observation method using binding and dissociation probe” (KYOTO UNIVERSITY, priority 2015, dated 2020).

The subject of assay [1] is focal adhesion. The assay is described as follows: Localization test of probe candidates (integrated SiMS images). Format: cell-based, Xenopus laevis. Also noted: key: “localization” is positive (P) when above criterion (1) is met. As to conditions: fixed, permeabilized XTC cell; lysate supernatant of EGFP fused probe; TIRF, 10000 frames. On the procedure: (§1) HEK (Human embryonic kidney)-293F cells were transfected with a plasmid encoding a probe candidate protein tagged with FLAG-EGFP or 3×FLAG-EGFP. […] Centrifugal separation was performed on the lysate and the supernatant liquid was collected. In order to perform screening for a probe for IRIS, the binding capacity of a probe candidate in the supernatant liquid with respect to the structure of an XCT cell that was fixed with paraformaldehyde (PFA) and that received a permeabilization process was tested. The appearance and disappearance of single molecule speckles (Single-molecule speckles, SiMS) in the structure was tested. Screening was performed for a probe for IRIS in accordance with the following criteria:
(§2) (1) It is possible to confirm a distribution of target substances in the structure in an image resulting from adding SiMS images;
(§3) The localization test of the above (1), whose result is shown in table 1, was performed in the following procedures. First, the supernatant liquid of lysate of a cell that expressed each probe candidate was brought into contact with an XCT cell that was fixed on a coverglass and that received a permeabilization process. […] The obtained speckle images of 10000 frames were integrated so as to confirm whether or not a distribution of target substances in the cell (microtubule, intermediate filament, focal adhesion or actin filament) was able to be confirmed. When a distribution of a target substances was able to be confirmed, the result of the localization test was treated as P (positive).

For assay [2], the system named is focal adhesion. The assay is described as follows: Washability test of probe candidates. Set-up: key: “washability” is positive (P) when above criterion (2) is met. Particulars: speckles equal to or less than about 10% after switching imaging solution 10 to 20 times. The assay is classed as cell-based, Xenopus laevis. On the procedure: (§4) (2) It is possible to wash and remove a probe after SiMS imaging (imaging step);
(§5) The […] of the above (2), whose result is shown in table 1, was performed in the following procedures. […] This switching of imaging solution was conducted slowly so that the observation position would not shift. Next, an imaging solution not containing a probe and not containing the active oxygen-scavenging mix was switched 10 to 20 times. After the switching, for confirmation, for an XCT cell sample in the observation chamber, speckle images of 10 frames were picked up under a similar condition to that of the localization test described in the previous paragraph, and when the number of speckles confirmed in the speckle images (i.e., the number of probes that had bound) became sufficiently smaller (equal to or less than about 10%) than the number of the speckles in the speckle images before the washing operation, washing was determined to be possible and the result was treated as P (positive).

Assay [3] concerns focal adhesion. Description: IRIS image test (reconstruction image). The assay is classed as cell-based, Xenopus laevis. Set-up: key: “IRIS image” is positive (P) when above criterion (3) is met. Particulars: reconstruction from 10000 frames with DAOSTORM
As to the method:
(§6) […] It is possible to reconstruct an image of a target substance by integrating the central positions of the respective speckles. The IRIS image test of the above (3) whose result is described in table 1 was performed in the following procedures. By using all the speckle images of 10000 frames picked up in the localization test, the central point of a probe that has bound to a target in each frame of the speckle images was determined with nanometer accuracy by using DAOSTORM. By adding a large number of pieces of central point information in the fluorescence images of 10000 frames, a reconstruction image (observation image) was generated. Whether or not a distribution of a target molecule was able to be observed in that reconstruction image was determined, and when a distribution of a target molecule was observed, the result was treated as P (positive).

For assay [4], the system named is focal adhesion. Description: Measurement of binding half-life of probe-target complex. Particulars: fixed XTC cell, single exponential fit. Also noted: species or system Xenopus laevis. The source says:
(§7) A probe and a target substance have the following binding characteristics. […] The above half-life herein is preferably a half-life of a probe-target complex formed by binding between a probe and a target substance in a case when a medium containing a probe and a sample containing a target substance that is to be observed are brought into contact under a condition for performing an imaging step. […] Measurement procedures for the half-life are as below. […] Ndissociation is a cumulative relative frequency of a probe that dissociated. A cumulative relative frequency is a ratio of the speckles that disappeared within a given period of time to the total number of measured speckles (i.e. probes) (i.e. probes that dissociated within a given period of time), and represents the total number as 1. Then, by fitting the above complementary cumulative relative frequency function with an exponent function, that half-life is calculated.
The measurement of binding half-life, whose result is shown in table 1, was performed in the following procedures. […] Then, by fitting the complementary cumulative relative frequency function with an exponent function, the half-life was calculated. However, the binding half-life with respect to an actin filament of Atto488-Lifeact was measured by using a method that is described in detail in the section for FIG. 9 in the Brief Description of the Drawings.

In assay [5] the test system is microtubule. Description: Localization test of probe candidates (integrated SiMS images). Format: cell-based, Xenopus laevis. Also noted: key: “localization” is positive (P) when above criterion (1) is met. Particulars: fixed, permeabilized XTC cell; lysate supernatant of EGFP fused probe; TIRF, 10000 frames. As to the method: as §1, §2, §3
Assay [6] deals with microtubule. Description: Washability test of probe candidates. Format: cell-based, Xenopus laevis. Also noted: key: “washability” is positive (P) when above criterion (2) is met. As to conditions: speckles equal to or less than about 10% after switching imaging solution 10 to 20 times. As to the method: as §4, §5
For assay [7], the system named is microtubule. Description: Measurement of binding half-life of probe-target complex. Set-up: species or system Xenopus laevis. Particulars: fixed XTC cell, single exponential fit.
Text: as §7
The measurement of binding half-life, whose result is shown in table 1, was performed in the following procedures. Speckle images of 10000 frames picked up in the localization test were used in order to measure a period of time between the appearance of a probe that has bound to a target in a speckle image and disappearance through dissociation in a semi-manual mode by using Speckle TrackerJ, an ImageJ plug-in. In case of for example picking up of images with an exposure time of 50 ms and at a frame rate of 20 Hz, it is assumed that a period of time between the appearance and disappearance of a speckle that is observed in only one of consecutive frames is 50 ms and a period of time between the appearance and disappearance of a speckle observed in only two consecutive frames is 100 ms. […] Ndissociation is a cumulative relative frequency of probes that dissociated. Then, by fitting the complementary cumulative relative frequency function with an exponent function, the half-life was calculated. However, the binding half-life with respect to an actin filament of Atto488-Lifeact was measured by using a method that is described in detail in the section for FIG. 9 in the Brief Description of the Drawings.

In assay [8] the test system is microtubule. The assay is described as follows: IRIS image test (reconstruction image). The assay is classed as cell-based, Xenopus laevis. Also noted: key: “IRIS image” is positive (P) when above criterion (3) is met. Particulars: reconstruction from 10000 frames with DAOSTORM
As to the method:
as §6

B1: Paxillin 167-557: EGFP fused (N terminus) human Paxillin fragment, residues 167-557 of sequence number 15 (protein, UniProt P49023 167-557, looked up, fragment)
chain: ANSSPPLPGALSPLYGVPETNSPLGGKAGPLTKEKPKRNGGRGLEDVRPSVESLLDELESSVPSPVPAITVNQGEMSSPQRVTSTQQQTRISASSATRELDELMASLSDFKIQGLEQRADGERCWAAGWPRDGGRSSPGGQDEGGFMAQGKTGSSSPPGGPPKPGSQLDSMLGSLQSDLNKLGVATVAKGVCGACKKPIAGQVVTAMGKTWHPEHFVCTHCQEEIGSRNFFERDGQPYCEKDYHNLFSPRCYYCNGPILDKVVTALDRTWHPEHFFCAQCGAFFGPEGFHEKDGKAYCRKDYFDMFAPKCGGCARAILENYISALNTLWHPECFVCRECFTPFVNGSFFEHDGQPYCEVHYHERRGSLCSGCQKPITGRCITAMAKKFHPE
modifications: N-terminal EGFP fusion
With B1, in the assay with focal adhesion [1], the LOCALIZATION entry was “P”. Besides, in the assay with focal adhesion [2], the WASHABILITY entry was “P”. In addition, the “IRIS IMAGE” value in the assay with focal adhesion [3] is given as “P”. In addition, the HALF-LIFE in the assay with focal adhesion [4] was 0.138 s.

B2: MAP4 659-908: EGFP fused (N terminus) mouse MAP4 fragment, amino acid residues 659-908 of sequence number 4 (protein, UniProt P27546 659-908, looked up, fragment)
chain: PPNKEPPPSPEKKAKPLATTQPAKTSTSKAKTQPTSLPKQPAPTTSGGLNKKPMSLASGSVPAAPHKRPAAATATARPSTLPARDVKPKPITEAKVAEKRTSPSKPSSAPALKPGPKTTPTVSKATSPSTLVSTGPSSRSPATTLPKRPTSIKTEGKPADVKRMTAKSASADLSRSKTTSASSVKRNTTPTGAAPPAGMTSTRVKPMSAPSRSSGALSVDKKPTSTKPSSSAPRVSRLATTVSAPDLKSV
modifications: N-terminal EGFP fusion
Regarding B2, the LOCALIZATION result in the assay on microtubule [5] is on record as “P”. Moreover, the WASHABILITY entry with microtubule [6] is “P”. In the assay on microtubule [7], this molecule came in with an HALF-LIFE of 0.106 s. Moreover, the “IRIS IMAGE” value in the assay with microtubule [8] was “P”.

B3: Paxillin 54-498: EGFP fused (N terminus) human Paxillin fragment, residues 54-498 of sequence number 15 (protein, UniProt P49023 54-498, looked up, fragment)
chain: SSEALNGTILDPLDQWQPSSSRFIHQQPQSSSPVYGSSAKTSSVSNPQDSVGSPCSRVGEEEHVYSFPNKQKSAEPSPTVMSTSLGSNLSELDRLLLELNAVQHNPPGFPADEANSSPPLPGALSPLYGVPETNSPLGGKAGPLTKEKPKRNGGRGLEDVRPSVESLLDELESSVPSPVPAITVNQGEMSSPQRVTSTQQQTRISASSATRELDELMASLSDFKIQGLEQRADGERCWAAGWPRDGGRSSPGGQDEGGFMAQGKTGSSSPPGGPPKPGSQLDSMLGSLQSDLNKLGVATVAKGVCGACKKPIAGQVVTAMGKTWHPEHFVCTHCQEEIGSRNFFERDGQPYCEKDYHNLFSPRCYYCNGPILDKVVTALDRTWHPEHFFCAQCGAFFGPEGFHEKDGKAYCRKDYFDMFAPKCGGCARAILENYISALNTLWHPE
modifications: N-terminal EGFP fusion
On to B3, for which the LOCALIZATION result in the assay on focal adhesion [1] is “P”. Also, in the assay on focal adhesion [2], the WASHABILITY result is “P”. For the same molecule, in the assay with focal adhesion [3], the “IRIS IMAGE” value was “P”. In addition, the HALF-LIFE with focal adhesion [4] stood at 0.091 s.
